In US20250034271A1:

Tests used:
[1] = molecular target: mouse CD40 (mCD40) on transfected CHO cells (mouse) (UniProt P27512); test: flow cytometry, CHO-mCD40 cells, negative control, anti-mIgG Fc-FITC; x: Anti-mouse-IgG-Fc-FITC, y: SSC-H
[2] = molecular target: monkey (rhesus macaque) CD40 (rmCD40) on transfected CHO cells (rhesus macaque); test: flow cytometry, CHO-rmCD40 cells, negative control, anti-mIgG Fc-FITC; x: Anti-mouse-IgG-Fc-FITC, y: SSC-H
[3] = molecular target: chimeric (mouse and human) CD40 (chiCD40) on transfected CHO cells (chimeric (mouse and human)); test: flow cytometry, CHO-chiCD40 cells, negative control, anti-mIgG Fc-FITC; x: Anti-mouse-IgG-Fc-FITC, y: SSC-H
Chain of chimeric (mouse and human) CD40 (chiCD40) on transfected CHO cells (chimeric (mouse and human)) (chain, as listed by the source mutant limits assumed): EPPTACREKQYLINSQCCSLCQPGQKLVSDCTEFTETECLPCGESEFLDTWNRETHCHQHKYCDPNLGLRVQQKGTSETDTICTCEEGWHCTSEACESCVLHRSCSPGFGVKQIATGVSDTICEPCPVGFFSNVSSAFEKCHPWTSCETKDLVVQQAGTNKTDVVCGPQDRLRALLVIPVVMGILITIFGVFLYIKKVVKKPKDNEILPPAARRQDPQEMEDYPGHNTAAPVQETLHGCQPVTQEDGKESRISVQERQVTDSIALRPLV

Chain of mouse CD40 (mCD40) on transfected CHO cells (mouse) (P27512 20-289 limits assumed): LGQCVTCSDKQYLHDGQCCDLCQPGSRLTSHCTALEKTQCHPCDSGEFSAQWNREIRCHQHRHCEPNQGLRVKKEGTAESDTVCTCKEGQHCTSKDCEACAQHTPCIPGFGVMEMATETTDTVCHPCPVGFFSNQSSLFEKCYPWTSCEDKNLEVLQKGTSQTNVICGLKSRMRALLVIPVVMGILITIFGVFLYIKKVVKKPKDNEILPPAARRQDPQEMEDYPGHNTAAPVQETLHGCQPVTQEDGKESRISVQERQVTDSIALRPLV
Chain of monkey (rhesus macaque) CD40 (rmCD40) on transfected CHO cells (rhesus macaque) (P25942 other isoform, or with tags, fused parts or gaps limits assumed): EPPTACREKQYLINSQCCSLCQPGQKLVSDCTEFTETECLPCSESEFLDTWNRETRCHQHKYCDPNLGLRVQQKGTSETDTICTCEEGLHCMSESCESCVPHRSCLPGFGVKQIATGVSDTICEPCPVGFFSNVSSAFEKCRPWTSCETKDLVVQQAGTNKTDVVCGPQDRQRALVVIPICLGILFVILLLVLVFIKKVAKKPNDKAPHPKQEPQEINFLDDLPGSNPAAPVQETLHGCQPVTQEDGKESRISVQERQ

% cells in the Anti-mouse-IgG-Fc-FITC positive gate [1]: 1.01%
% cells in the Anti-mouse-IgG-Fc-FITC positive gate [2]: 1.19%
% cells in the Anti-mouse-IgG-Fc-FITC positive gate [3]: 1.19%
Substance: NC
